Test results published in US20140018288A1, “X-DING-CD4 Peptide” (priority 2012, published 2014).

Tests used:
HIV-1 LTR promoter = experiment: Rapid Suppression Assay (RSA), PMA-induced HIV-1 LTR-driven luciferase in 1G5 cells; assay type: cell-based; details: DING family proteins
Excerpt: We applied the cell based Rapid Suppression Assay (RSA) for testing X-DING-CD4-induced inhibition of HIV-1 LTR promoter (Lesner et al., 2004; Lesner et al., 2005). Briefly, 1 G5 cells (obtained through the NIH AIDS Research and Reagent Program, Division of AIDS, NIAID, NIH) that are stably transfected with an inducible luciferase gene driven by HIV-1 LTR (Aguilar-Cordova et al., 1994) were washed in PBS, resuspended in hybridoma medium to concentration of 5×10^6cells/ml. For purpose of generating control titration curves, 100 μl aliquots of 1G5 cells were mixed with 100 μl cell culture medium either supplemented with various amount of rX-DING-CD4^pep (SEQ ID No: 1) or no rX-DING-CD4^pep, and incubated for three hours at 37° C. Subsequently, all cells were induced with phorbol 12-myristate 13-acetate (PMA) at a concentration of 5 ng/ml. Two control tubes containing 1G5 cells without rX-DING-CD4^pep treatment were resuspended in hybridoma medium with or without PMA. Three hours later cells were collected by centrifugation and lysed in the same tubes using Reporter Lysis buffer (Promega). The expression levels of luciferase protein in the lysates were determined according to the manufacturer's protocol. The X-DING-CD4^pep inhibition values were established based on the formula: [(LUC1-LUC0)×100/Z]−100; where LUC1 is the value obtained from cells induced by PMA and treated with a specific dilution of X-DING-CD4^pep; and LUC0 is the basal value obtained from the uninduced and untreated cells; Z is the absolute luciferase induction by PMA calculated as Z=LUCmax-LUCO3 where LUCmax is the value of 100% luciferase expression in PMA induced X-DING-CD4^pep untreated cells.
One aspect of the present invention is related to X-DING-CD4 peptide derivatives. Here we obtained 15 derivatives SED ID NOS: 1-15 by recombination or in vitro synthesis. We tested the biological activity of some these derivatives by rapid suppression assay (RSA). In XD-4M, the third amino acid glycine in the native X-DING-CD4 peptide was substituted with the polar amino acid glutamine. In XD-7, the two amino acids, cysteine and valine, replaced the three amino acids, glycine, serine and aspartic acid, in the native X-DING-CD4 peptide. In XD-12 and XD-12sh, the 69th amino acid glutamic acid in the native X-DING-CD4 peptide was methylated. In XD-9, the 69th amino acid glutamic acid in the native X-DING-CD4 peptide was substituted with the amino acid glutamine. The RSA procedure was similar to that described in Example 2. The inhibitory values are plotted in FIG. 5.
We performed the rapid suppression assay (RSA) which tests directly the inhibition of HIV-1 transcription (similar to the procedure described in Example 2), the MAGI assay which tests the inhibition of HIV-1 replication in a single cycle infection (similar to the procedure described in Example 2), and the HIV-1 infection inhibition assay in human PBLs.

NL4-3 HIV-1 isolate [1] = experiment: MAGI assay of HIV-1 replication in MAGI-CCR-5 cells; assay type: cell-based; details: DING family proteins, FIG. 16B
Protocol: The antiviral activity of rX-DING-CD4^pep was tested by MAGI assay. […] Subsequently, cells were exposed to rX-DING-CD4^pep treatment in the presence of DMEM supplemented with 5% fetal bovine serum, antibiotics, glutamate and […] DEAE dextran. […] Replication of virus was evaluated forty eight hours later after fixation of cells with 1% formaldehyde and 0.2% glutaraldehyde in PBS. Expression of β-galactosidase was visualized by 50 min exposure to X-GAL (5-bromo-4-chloro-3-indolyl-β-D-galactopyranoside), 0.4 mg/ml 2 mM MgCl2, 4 mM potassium ferricyanide at 37° C. After enumeration of the infected (blue) cells, all cells were lysed and subjected to the protein assay (Bio-Rad). All data were adjusted by total protein concentration and anti-viral activity was calculated as percent inhibition. The infected untreated and uninfected cells served as (+) and (−) controls to calculate 100% virus infectivity. The inhibition values for HIV-1 replication were calculated based on the formula [(R1−R0)×100/Z]-100; where R1 is the value obtained from cells infected by HIV-1 and treated with specific dilution of X-DING-CD4^pep and R^0 is the basal value obtained from the uninfected and untreated cells; Z is the absolute HIV-1 replication value calculated as Z═Rmax−R0, where Rmax is the value representing 100% of HIV-1 replication in X-DING-CD4^pep untreated cells.

[2] = Acute toxicity after intraperitoneal injection in mice; assay type: in vivo, mice (B6/SJL); details: 1-50 μg rX-DING-CD4^pep or 50 μg nX-DING-CD4, 7 days
Protocol: In the animal tests, eight-week old wild-type mice (B6/SJL) with both genders in each test group were injected intraperitoneally with 1-50 μg of rX-DING-CD4^pep or 50 μg nX-DING-CD4. The nX-DING-CD4 refers to the native form of X-DING-CD4 protein that was purified through IXC chromatography from the extracellular compartment of HIV-1 resistant T-cells. The rX-DING-CD4^pep refers to therapeutic X-DING-CD4 peptide that was expressed in E. coli and purified through Ni-affinity column. Toxicity was assessed by obvious symptoms including diarrhea, ruffled fur, abnormal gait, or loss of more than 10% weight. Animals were weighted before injection and then observed every hour for the first 10 hours after injection; then animals were weighted on 1, 3, 4 and 7 days after X-DING-CD4 administration. […] In its highest administered dose (50 μg—corresponding to 2 μg/G) we exceeded therapeutic dose blocking 95% of HIV promoter activity (by RSA assays) and 90% virus replication (by MAGI assays) (See FIGS. 2 & 3 in Example 2).

NL4-3 HIV-1 isolate [3] = experiment: HIV-1 infection inhibition assay in human PBLs, intracellular p24 core antigen ELISA; assay type: cell-based; details: 1 μg/ml protein, seven days after infection
Protocol: In addition, we measured the inhibitory activities of these four proteins in HIV-1-infected peripheral blood lymphocytes (PBLs). The cells are treated separately with the proteins and the replication of virus was measured five and seven days later by assessing the intracellular levels of p24 core protein. PBLs were obtained by elutriation from the whole blood of healthy, HIV-1 negative volunteers. Before the experiment, cells were stimulated for 2 days in Dulbecco's modified Eagle medium (DMEM) supplemented with 10% fetal bovine serum (FBS), phytohemaglutinin (PHA, 5 μg/ml; Sigma), interleukin 2 (10 U/ml; R&D Systems), antibiotics and glutamate. Subsequently, cells were cultured without PHA. Briefly, 3×10^6 PBLs/well in a 24-well plate (Costar Scientific) were cultured in 1 ml RPMI medium supplemented with antibiotics, glutamate and 1 μg/ml of each protein, respectively. Six hours after the initial exposure to the protein treatments, the culture medium was supplemented with 3%/Vol FBS. […] Replication of virus was evaluated at five and seven days after infection by Elisa assay of the intracellular HIV-1 p24 core antigen (Perkin Elmer). The viability of cells was assessed by the dye exclusion method (Strober, 2001) at 1, 2, 3, 5 and 7 days after protein treatments.

X-DING-CD4 mRNA = experiment: Induction of X-DING-CD4 mRNA expression in 1G5 cells (qRT-PCR); assay type: cell-based; details: 6 hours, 200 ng/ml
Protocol: The sX-DING-CD4 may be released from the macropinosome to endoplasmic reticulum (ER) and cause induction of IFNα, which in turn induces the expression of X-DING-CD4 mRNA and endogenous X-DING-CD4 protein (step 2). The induction of X-DING-CD4 mRNA by sX-DING-CD4 was tested in 1G5 cells. Briefly, three groups of 1G5 cells were treated for 6 hours with NL4-3 HIV-1 at MOI of 0.1, 200 ng/ml native X-DING-CD4 protein, and 1-126 rX-DING-CD4 peptide (i.e., rX-DING-CD4^pep), respectively. […] The eX-DING-CD4, derived from the newly synthesized X-DING-CD4, binds CN and is transported into the nucleus where it blocks LTR transcription (steps 2-7).
Two peptide fragments from the N-terminal region of X-DING-CD4 were synthesized and their activities in inducing IFN-α and X-DING-CD4 mRNA expressions were determined by qRT-PCR. The concentration of proteins used in the assays was 200 ng/ml except for the combination of XD-1 and XD-4 where we used 100 ng/ml of each peptide. The 1-126 rX-DING-CD4 and peptide C3 p16 served as positive and negative controls, respectively. The C3 Peptide P16 was derived from the C3d component of serum complement. C3 Peptide P16 regulates B cells, but not T cells, through interacting with the gp140 C3d receptor (CR2).

B1: X-DING-CD4: native form of X-DING-CD4 protein purified from the extracellular compartment of HIV-1 resistant T-cells, about 40 kDa (protein, listed as Homo sapiens)
chain: MADINGGGATLPQPLYQTSGVLTAGFAPYIGVGSGKGKLAFLNNDYSQFGTGTKNVHWAGSDSKLTSTELSTYASTKQAAWGKLIQVPSVATSVAIPFNKAGSNAVDLSVDQLCGVFSGRITTWNQLPATGRTGNIVVVYRNEASGTTELFTRFLTAKCVNESKKFVVTTNFADSFGVPAGAVPAVTSQGVMTKLNAGDGRITYMSPDYAAPTLAGLDDATKVAKVAGVSPAPDNVSAAIAAVPVPAAANVALQNAWVPVFAAAADANDPSVVPYPSTGFPILGFTNLIFSQ
HIV-1 LTR promoter
  IC50 RSA: 0.052 µg/mL
HIV-1 LTR promoter; RSA, FIG. 16A
  HIV-1 LTR IC50: 0.052 µg/mL
NL4-3 HIV-1 isolate [1]
  IC50, HIV-1 replication (MAGI): 0.075 µg/mL
[2]
  obvious symptoms of toxicity (diarrhea, ruffled fur, abnormal gait): Neither of rX-DING-CD4^pep treatment nor nX-DING-CD4 treatment caused any obvious symptoms
NL4-3 HIV-1 isolate [3]
  reduction of HIV-1 replication (p24): about 11 fold
X-DING-CD4 mRNA
  expression of X-DING-CD4 mRNA: induced expression of X-DING-CD4 mRNA
